Source: the supplement of paper PMC7877785
± gives the uncertainty stated by the source.

Test: self-splicing fitness, log relative to wild type (ln ratio); higher = more splicing; Tetrahymena group I intron in knt gene, E. coli kanamycin selection, DiMSum; sequences stand for … in CUCUCU…GGAGGGAAAAGUUAUCAGGCAUGCACCUGGUAGCUAGUCUUUAAACCAAUAGAUUGCAUCGGUUUAAAAGGCAAGACCGUCAAAUUGCGGGAAAGGGGUCAACAGCCGUUCAGUACCAAGUCUCAGGGGAAACUUUGAGAUGGCCUUGCAAAGGGUAUGGUAAUAAGCUGACGGACAUGGUCCUAACCACGCAGCCAAGUCCUAAGUCAACAGAUCUUCUGUUGAUAUGGAUGCAGUUCACAGACUAAAUGUCGGUCGGGGAAGAUGUAUUCUUCUCAUAAGAUAUAGUCGGACCUCUCCUUAAUGGGAGCUAGCGGAUGAAGUGAUGCAACACUGGAGCCGCUGGGAACUAAUUUGUAUGCGAAAGUAUAUUGAUUAGUUUUGGAGUACUCGUGGUCG
Outline: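 A randomised library covering all eight P1ex-region intron nucleotides was built with the intron in the knt kanamycin-resistance gene on pET-22b(+) and held in E. coli BL21(DE3). Cells were grown overnight at 37°C or 30°C on LB agar, with or without 25 μg/mL kanamycin, plus 100 μg/mL carbenicillin, 50 μM IPTG and 0.2% rhamnose, and pooled colonies were amplicon-sequenced on an Illumina HiSeq 2500. DiMSum fitness is the error-weighted combination of wild-type-normalised replicate fold changes, kanamycin versus none.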

CGAUAGCAAUAUUACGCGGC
self-splicing fitness (ln) (30 °C): -2.93 ± 0.41

CGAUAGCAAUAUUACGCGUG
self-splicing fitness (ln) (30 °C): -1.89 ± 0.092 | self-splicing fitness (ln) (37 °C): -0.431 ± 0.1

CGAUAGCAAUAUUACGCUUC
self-splicing fitness (ln) (30 °C): -3.11 ± 0.26 | self-splicing fitness (ln) (37 °C): -2.99 ± 0.47

CGAUAGCAAUAUUACGGAUA
self-splicing fitness (ln) (37 °C): -0.838 ± 0.19

CGAUAGCAAUAUUACGGCCU
self-splicing fitness (ln) (30 °C): -1.67 ± 0.19 | self-splicing fitness (ln) (37 °C): -0.545 ± 0.2

CGAUAGCAAUAUUACGGCGG
self-splicing fitness (ln) (30 °C): -0.197 ± 0.077 | self-splicing fitness (ln) (37 °C): 0.211 ± 0.1

CGAUAGCAAUAUUACGGUCC
self-splicing fitness (ln) (30 °C): -1.2 ± 0.21 | self-splicing fitness (ln) (37 °C): -0.541 ± 0.23

CGAUAGCAAUAUUACGGUCG
self-splicing fitness (ln) (30 °C): -4.36 ± 0.29 | self-splicing fitness (ln) (37 °C): -3.39 ± 0.35

CGAUAGCAAUAUUACGGUGA
self-splicing fitness (ln) (30 °C): -2.74 ± 0.2 | self-splicing fitness (ln) (37 °C): -1.94 ± 0.19

CGAUAGCAAUAUUACGUAAU
self-splicing fitness (ln) (30 °C): -2.55 ± 0.15 | self-splicing fitness (ln) (37 °C): -1.92 ± 0.15

CGAUAGCAAUAUUACGUACC
self-splicing fitness (ln) (37 °C): -1.56 ± 0.44

CGAUAGCAAUAUUACGUGAG
self-splicing fitness (ln) (30 °C): -0.997 ± 0.07 | self-splicing fitness (ln) (37 °C): -0.771 ± 0.091

CGAUAGCAAUAUUACGUUAA
self-splicing fitness (ln) (30 °C): -3.59 ± 0.21 | self-splicing fitness (ln) (37 °C): -1.15 ± 0.16

CGAUAGCAAUAUUACGUUAC
self-splicing fitness (ln) (30 °C): -3.47 ± 0.28 | self-splicing fitness (ln) (37 °C): -2.17 ± 0.2

CGAUAGCAAUAUUACGUUAU
self-splicing fitness (ln) (30 °C): -3.93 ± 0.33 | self-splicing fitness (ln) (37 °C): -1.61 ± 0.18

CGCAAGCAAUAUUACGAAAU
self-splicing fitness (ln) (30 °C): -3.48 ± 0.21 | self-splicing fitness (ln) (37 °C): -1.86 ± 0.18

CGCAAGCAAUAUUACGAACA
self-splicing fitness (ln) (30 °C): -0.432 ± 0.1 | self-splicing fitness (ln) (37 °C): 0.252 ± 0.1

CGCAAGCAAUAUUACGAAUA
self-splicing fitness (ln) (30 °C): -3.27 ± 0.21 | self-splicing fitness (ln) (37 °C): -2.4 ± 0.2

CGCAAGCAAUAUUACGACGA
self-splicing fitness (ln) (30 °C): -1.48 ± 0.11 | self-splicing fitness (ln) (37 °C): -0.997 ± 0.11

CGCAAGCAAUAUUACGACUU
self-splicing fitness (ln) (37 °C): -2.07 ± 0.25

CGCAAGCAAUAUUACGAUCC
self-splicing fitness (ln) (30 °C): -1.71 ± 0.12 | self-splicing fitness (ln) (37 °C): -1.36 ± 0.19

CGCAAGCAAUAUUACGAUCG
self-splicing fitness (ln) (30 °C): -1.19 ± 0.1 | self-splicing fitness (ln) (37 °C): -0.342 ± 0.14

CGCAAGCAAUAUUACGCAUU
self-splicing fitness (ln) (30 °C): -4.11 ± 0.19 | self-splicing fitness (ln) (37 °C): -3.12 ± 0.21

CGCAAGCAAUAUUACGCCUG
self-splicing fitness (ln) (30 °C): -1.96 ± 0.13 | self-splicing fitness (ln) (37 °C): -2.52 ± 0.23

CGCAAGCAAUAUUACGCGGA
self-splicing fitness (ln) (30 °C): -2.93 ± 0.28 | self-splicing fitness (ln) (37 °C): -2.41 ± 0.23

CGCAAGCAAUAUUACGCUCC
self-splicing fitness (ln) (30 °C): -2.06 ± 0.27 | self-splicing fitness (ln) (37 °C): -1.11 ± 0.38

CGCAAGCAAUAUUACGGAAC
self-splicing fitness (ln) (30 °C): -3.07 ± 0.21 | self-splicing fitness (ln) (37 °C): -2.87 ± 0.32

CGCAAGCAAUAUUACGGAGA
self-splicing fitness (ln) (30 °C): -3.09 ± 0.18 | self-splicing fitness (ln) (37 °C): -2.54 ± 0.19

CGCAAGCAAUAUUACGGAUU
self-splicing fitness (ln) (30 °C): -4.84 ± 0.34 | self-splicing fitness (ln) (37 °C): -1.5 ± 0.19

CGCAAGCAAUAUUACGGCGA
self-splicing fitness (ln) (30 °C): -1.91 ± 0.24 | self-splicing fitness (ln) (37 °C): -0.653 ± 0.17

CGCAAGCAAUAUUACGGCUU
self-splicing fitness (ln) (30 °C): -2.5 ± 0.14 | self-splicing fitness (ln) (37 °C): -2.28 ± 0.2

CGCAAGCAAUAUUACGGGCG
self-splicing fitness (ln) (30 °C): -4.43 ± 0.19 | self-splicing fitness (ln) (37 °C): -2.76 ± 0.2

CGCAAGCAAUAUUACGGGGU
self-splicing fitness (ln) (30 °C): -4.04 ± 0.18 | self-splicing fitness (ln) (37 °C): -1.33 ± 0.12

CGCAAGCAAUAUUACGUAUU
self-splicing fitness (ln) (30 °C): -3.08 ± 0.21 | self-splicing fitness (ln) (37 °C): -3.5 ± 0.35

CGCAAGCAAUAUUACGUCAU
self-splicing fitness (ln) (30 °C): -4.26 ± 0.24 | self-splicing fitness (ln) (37 °C): -2.4 ± 0.17

CGCAAGCAAUAUUACGUCCG
self-splicing fitness (ln) (30 °C): -0.62 ± 0.12 | self-splicing fitness (ln) (37 °C): 0.53 ± 0.2

CGCAAGCAAUAUUACGUCUC
self-splicing fitness (ln) (30 °C): -3.36 ± 0.18 | self-splicing fitness (ln) (37 °C): -1.49 ± 0.15

CGCAAGCAAUAUUACGUCUU
self-splicing fitness (ln) (30 °C): -4.05 ± 0.26 | self-splicing fitness (ln) (37 °C): -3.12 ± 0.22

CGCAAGCAAUAUUACGUGGA
self-splicing fitness (ln) (30 °C): -3.37 ± 0.16 | self-splicing fitness (ln) (37 °C): -1.6 ± 0.095

CGCAAGCAAUAUUACGUGUG
self-splicing fitness (ln) (30 °C): -4.31 ± 0.14 | self-splicing fitness (ln) (37 °C): -2.56 ± 0.11

CGCAAGCAAUAUUACGUUGA
self-splicing fitness (ln) (30 °C): -2.6 ± 0.13 | self-splicing fitness (ln) (37 °C): -2.02 ± 0.15

CGCCAGCAAUAUUACGAACG
self-splicing fitness (ln) (30 °C): -0.982 ± 0.097 | self-splicing fitness (ln) (37 °C): 0.0565 ± 0.12

CGCCAGCAAUAUUACGACAC
self-splicing fitness (ln) (30 °C): -2.92 ± 0.25 | self-splicing fitness (ln) (37 °C): -1.65 ± 0.26

CGCCAGCAAUAUUACGACCG
self-splicing fitness (ln) (30 °C): -0.693 ± 0.083 | self-splicing fitness (ln) (37 °C): -0.103 ± 0.12

CGCCAGCAAUAUUACGAGAA
self-splicing fitness (ln) (30 °C): -2.14 ± 0.42 | self-splicing fitness (ln) (37 °C): -2.75 ± 0.38

CGCCAGCAAUAUUACGAGUG
self-splicing fitness (ln) (30 °C): -2.41 ± 0.07 | self-splicing fitness (ln) (37 °C): -1.59 ± 0.11

CGCCAGCAAUAUUACGAUAC
self-splicing fitness (ln) (30 °C): -3.42 ± 0.22 | self-splicing fitness (ln) (37 °C): -3.13 ± 0.24

CGCCAGCAAUAUUACGAUAU
self-splicing fitness (ln) (30 °C): -3.92 ± 0.22 | self-splicing fitness (ln) (37 °C): -2.14 ± 0.2

CGCCAGCAAUAUUACGCCGC
self-splicing fitness (ln) (30 °C): -2.72 ± 0.21 | self-splicing fitness (ln) (37 °C): -1.39 ± 0.39
